# Source: patent publication US7888090B2, “Mutants of O6-alkylguanine-DNA alkyltransferase” (Ecole Polytechnique Federale de Lausanne, priority 2004, dated 2011)
# B1: AGTM: AGT mutant Cys62Ala, Gln115Ser, Gln116His, Lys125Ala, Ala127Thr, Arg128Ala, Gly131Lys, Gly132Thr, Met134Leu, Arg135Ser, Cys150Asn, Ser151Ile, Ser152Asn, Asn157Gly, Ser159Glu, truncated after … (protein, UniProt P16455 1-207, looked up, variant C62A Q115S Q116H K125A A127T R128A G131K G132T M134L R135S C150N S151I S152N N157G S159E del183-207)
# Methylated-DNA--protein-cystei …: MDKDCEMKRTTLDSPLGKLELSGCEQGLHEIKLLGKGTSAADAVEVPAPAAVLGGPEPLMQATAWLNAYFHQPEAIEEFPVPALHHPVFQQESFTRQVLWKLLKVVKFGEVISYSHLAALAGNPAATAAVKTALSGNPVPILIPCHRVVNINGAVGGYEGGLAVKEWLLAHEGHRLGKPGLG
# modifications: His tag
# Experiment: Periplasmic expression / stability under oxidizing conditions
# Set-up: species or system E. coli
# Protocol: The activities towards AGT substrates are measured after purification without addition of reducing agents such as dithiothreitol or beta-mercaptoethanol. Alternatively, the activities of mutant AGT and wild type human are compared after their export into cellular compartments with oxidising redox potential (e.g. the periplasm of E. coli due to their fusion to appropriate signal sequences. Activity towards AGT substrates under reducing and oxidising conditions is compared by performing the reactions in the presence or absence of reducing agents such as dithiothreitol or beta-mercaptoethanol.
# The mutant AGT gene of Example 1 is amplified and cloned as described in Example 1 with the oligonucleotides SEQ ID NO:3, SEQ ID NO:10 and SEQ ID NO:4, SEQ ID NO:9 causing the further mutation Cys62Ala in the gene upon their incorporation by PCR. Protein expression, purification and determination of yield is carried out as described in Example 1. The mutant gene is PCR amplified with the primers SEQ ID NO:11, SEQ ID NO:12 that contain SfiI restriction sites to subclone the gene in fusion to the g3 protein of filamentous phage in the vector pAK100 (Krebber et al., J Immunol Methods 201:35-55, 1997). […] The supernatant is directly subjected to quantification of protein yield via SDS-PAGE and activity assays as described in Example 1.
# Stability under oxidizing conditions: The mutant gene is PCR amplified with the primers SEQ ID NO:11 and SEQ ID NO:28 to subclone the gene into pAK100, as described in Example 2. […] To compare the reactivity of […] (Juillerat et al., Chem Biol 10:313-317, 2003) and the mutant, samples are incubated with 1 µM BG-Bt for 50 min, quenched with SDS-Laemmli buffer and analyzed by western blotting using neutravidin peroxidase conjugate (Pierce) or a monoclonal mouse anti-FLAG IgG antibody (M2, Sigma) and a secondary anti-mouse-IgG::HRP conjugate, and Renaissance reagent plus (NEN). […] The anti-FLAG IgG antibody is used to estimate the total amount of soluble AGT protein, whereas neutravidin quantifies the reactive portion of it. […]
molecule,measurement,value
B1,sensitivity to oxidation,reduced sensitivity to oxidation
